Data published in patent publication US6451762B1 (Novo Nordisk A/S, priority 1997, dated 2002).
Entries after “also recorded” stand apart in the source; their conditions may differ. Marks after values point to notes of the source that are not given here.

B1: Ribonuclease: molecular size standard, Mw 13.7 kDa (protein, UniProt P61823 27-150, looked up)
Ribonuclease pancreatic: KETAAAKFERQHMDSSTSAASSSNYCNQMMKSRNLTKDRCKPVNTFVHESLADVQAVCSQKNVACKNGQTNCYQSYSTMSITDCRETGSSKYPNCAYKTTQANKHIIVACEGNPYVPVHFDASV
B2: Catalase: molecular size standard, Mw 232 kDa (protein, UniProt P00432 2-527, looked up)
Catalase: ADNRDPASDQMKHWKEQRAAQKPDVLTTGGGNPVGDKLNSLTVGPRGPLLVQDVVFTDEMAHFDRERIPERVVHAKGAGAFGYFEVTHDITRYSKAKVFEHIGKRTPIAVRFSTVAGESGSADTVRDPRGFAVKFYTEDGNWDLVGNNTPIFFIRDALLFPSFIHSQKRNPQTHLKDPDMVWDFWSLRPESLHQVSFLFSDRGIPDGHRHMNGYGSHTFKLVNANGEAVYCKFHYKTDQGIKNLSVEDAARLAHEDPDYGLRDLFNAIATGNYPSWTLYIQVMTFSEAEIFPFNPFDLTKVWPHGDYPLIPVGKLVLNRNPVNYFAEVEQLAFDPSNMPPGIEPSPDKMLQGRLFAYPDTHRHRLGPNYLQIPVNCPYRARVANYQRDGPMCMMDNQGGAPNYYPNSFSAPEHQPSALEHRTHFSGDVQRFNSANDDNVTQVRTFYLKVLNEEQRKRLCENIAGHLKDAQLFIQKKAVKNFSDVHPEYGSRIQALLDKYNEEKPKNAVHTYVQHGSHLSAREKANL
B3: Ovalbumin: molecular size standard, Mw 43 kDa (protein, UniProt P01012 2-386, looked up)
Ovalbumin: GSIGAASMEFCFDVFKELKVHHANENIFYCPIAIMSALAMVYLGAKDSTRTQINKVVRFDKLPGFGDSIEAQCGTSVNVHSSLRDILNQITKPNDVYSFSLASRLYAEERYPILPEYLQCVKELYRGGLEPINFQTAADQARELINSWVESQTNGIIRNVLQPSSVDSQTAMVLVNAIVFKGLWEKAFKDEDTQAMPFRVTEQESKPVQMMYQIGLFRVASMASEKMKILELPFASGTMSMLVLLPDEVSGLEQLESIINFEKLTEWTSSNVMEERKIKVYLPRMKMEEKYNLTSVLMAMGITDVFSSSANLSGISSAESLKISQAVHAAHAEINEAGREVVGSAEAGVDAASVSEEFRADHPFLFCIKHIATNAVLFFGRCVSP

test system: not listed separately; experiment: Gel filtration on Sephacryl S-300 HR (aggregate formation, method 1); format: physicochemical; parameters: key to KAV: KAV=(VE-V0)/(VT-V0); fraction of available elution volume; settings: Sephacryl S-300 HR, eluent 125 mM NaCl, 20 mM sodium phosphate pH 7.4; sample 600 μM derivative, 200 μM Zn2+, 0-20 mM NaCl, phenol, m-cresol, pH 7.5
Method: A pH neutral aqueous buffer system is used in the gel filtration and the insulin derivatives in the aggregated state are applied to the column in the form of a pharmaceutical preparation at a concentration of 600 nmol insulin/ml. […] However, when the actual state of aggregation in a pharmaceutical preparation is to be assessed, the medium of the preparation, exclusive the Zn^2+ which is insulin bound, is used as the eluent for the gel filtration. A column of 28×1 cm is eluted at a rate of 15 ml/h. Insulin derivatives were injected (200 μl) as a standard formulation comprising 600 μM derivative, 200 or 300 μM Zn^2+, 20 mM NaCl (or varied), 16 mM phenol, 16 mM m-cresol, 7 mM sodium phosphate at pH 7.5. Exclusion limit of Sephacryl® S-300 HR is stated by the manufacturer, Pharmacia, as a molecular weight of 1,500 kDa for globular proteins and 400 kDa for linear dextrans. In practice the elution of solutes of different size is characterised by the available volume as KAV values: KAV=(VE-V0)/(VT-V0) where VE is elution volume, V0 is void volume, e.g. elution volume of blue dextran, VT is total volume. Thus, the KAV value is independent of column dimension. […]

Molecule	KAV
Lys^B29(N^εlithocholyl-α-Glu-) des(B30) human insulin	0.53
Lys^B29(N^εlithocholyl-γ-Glu-) des(B30) human insulin [Lys^B29(N^ε lithocholyl-γ-Glu-) des(B30)]	0.04*
Lys^B29(N^εω-carboxyheptadecanoyl) des(B30) human insulin	0.05
Lys^B29(N^ε ω-carboxynonadecanoyl) des(B30)	0.04
Lys^B29(N^ε cholesteryloxycarbonyl)	0.00
Lys^B29(N^εtetradecanoyl) des(B30) human insulin [Lys^B29(N^ε tetradecanoyl) des(B30), reference compound]	0.51

same assay, conditions: Sephacryl S-300 HR, eluent 125 mM NaCl, 20 mM sodium phosphate pH 7.4; sample 600 μM, 300 μM Zn2+

Molecule	KAV
Lys^B29(N^ε decanoyl)	0.67

same assay, conditions: Sephacryl S-300 HR, medium of the preparation as eluent: 5 mM sodium phosphate pH 7.5, 10 mM NaCl, 16 mM phenol, 16 mM m-cresol, 1.6% glycerol; 2-3 Zn2+/hexamer

Molecule	KAV
Lys^B29(N^εω-carboxyheptadecanoyl) des(B30) human insulin	about 0.45

same assay, conditions: Sephacryl S-300 HR, pH 7.4 eluent; standards applied dissolved in water

Molecule	KAV
Thyroglobulin: molecular size standard, Mw 669 kDa [reference compound]	0.08
Ferritin [reference compound]	0.19
Albumin: molecular size standard, Mw 67 kDa [reference compound]	~0.38
B9Asp, B27Glu human insulin [reference compound]	0.71
Aldolase: molecular size standard, Mw 158 kDa [reference compound]	~0.32
B1	0.63
B2	0.30

same assay, conditions: Sephacryl S-300 HR, pH 7.4 eluent; standards applied dissolved in water; listed as monomeric form of insulin

Molecule	KAV
B9Asp, B27Glu human insulin [reference compound]	about 0.71

same assay, conditions: gel filtration at neutral pH, formulation used (Table 1)

Molecule	formation of high molecular weight soluble aggregates
Lys^B29(N^εlithocholyl-α-Glu-) des(B30) human insulin	only the first forms aggregates; also recorded: incapable of forming soluble high molecular weight aggregates
Lys^B29(N^εlithocholyl-γ-Glu-) des(B30) human insulin [Lys^B29(N^ε lithocholyl-γ-Glu-) des(B30)]	capable of forming soluble high molecular weight aggregates
Lys^B29(N^εω-carboxyheptadecanoyl) des(B30) human insulin	capable of forming high molecular weight soluble aggregates
Lys^B29(N^εtetradecanoyl) des(B30) human insulin [Lys^B29(N^ε tetradecanoyl) des(B30), reference compound]	incapable of forming soluble high molecular weight aggregates

same assay, conditions: gel filtration at neutral pH, formulation used (Table 1); listed as Ly B^29(N^εlithocholyl-γ-Glu-) des(B30) human insulin

Molecule	formation of high molecular weight soluble aggregates
Lys^B29(N^εlithocholyl-γ-Glu-) des(B30) human insulin [Lys^B29(N^ε lithocholyl-γ-Glu-) des(B30)]	capable of forming high molecular weight soluble aggregates

same assay, conditions: medium of the preparation as eluent, 10 mM NaCl, 2-3 Zn2+/hexamer

Molecule	degree of aggregation in the published formulation
Lys^B29(N^εω-carboxyheptadecanoyl) des(B30) human insulin	no high molecular weight aggregates of insulin derivatives was present

test system: not listed separately; experiment: Disappearance after subcutaneous injection in pigs; settings: pig, in vivo, sc
Source text: The gel filtration experiment using the conditions prescribed in this section is the direct physico-chemical method to reveal the potential aggregate formation property of an insulin derivative. Disappearance after subcutaneous injection in pigs reflects the combination of the albumin binding and polymer formation properties of the insulin derivative, besides a variety of biological factors.

Molecule	Disappearance in pigs, T50%	Disappearance T50%
Lys^B29(N^ε-dehydrolithocholoyl-) des(B30) HI	>34 h	–
Lys^B29(N^εlithocholyl-α-Glu-) des(B30) human insulin	–	11.8 h
Lys^B29(N^ε-hexadecanoyl-α-amido-γ-Glu-) des(B30) HI	15.3 h	–
Lys^B29(N^εlithocholyl-γ-Glu-) des(B30) human insulin [Lys^B29(N^ε lithocholyl-γ-Glu-) des(B30)]	22.8 h	22.8 h
Lys^B29(N^εω-carboxyheptadecanoyl) des(B30) human insulin	–	18.7 h
Lys^B29(N^ε ω-carboxynonadecanoyl) des(B30)	–	21.9 h
Lys^B29(N^ε-lithocholoyl-α-amido-γ-Glu-) des(B30) HI	>34 h	–
Lys^B29(N^ε-lithocholoyl-) des(B30) HI	>34 h	–
Lys^B29(N^ε-deoxycholoyl-γ-Glu-) des(B30) HI	13.9 h	–
B9Asp, B27Glu human insulin [reference compound]	–	(1) h
Lys^B29(N^ε decanoyl)	–	5.1 h
Asp^A21 Lys^B29(N^ε-tetradecanoyl-) des(B30) HI	16.4 h	–
Lys^B29(N^εtetradecanoyl) des(B30) human insulin [Lys^B29(N^ε tetradecanoyl) des(B30), reference compound]	–	14.3 h
Lys^B29(N^ε-cholanoyl-) des(B30) HI	20.1 h	–

test system: not listed separately; experiment: Gel filtration method 2 on Superose 6HR (HPLC, 37° C.); format: physicochemical; settings: 2 Zn2+/6 ins, 140 mM NaCl, 10 mM tris, pH 7.4
Method: An alternative method to measure the capability of insulin derivatives of forming soluble high molecular weight aggregates was developed, suitable for HPLC equipment. The column dimensions, injection volume, and flow rate correspond to the first method, whereas the temperature is increased to 37° C. and the phosphate buffer is changed to trishydroxymethylaminomethan hydrochloride and additional sodium chloride. The aggregated state of insulin is defined to elute before the gel filtration standard aldolase like in the first method.

Molecule	KAV (Superose 6HR) 2Zn^2+/6 ins
Lys^B29(N^ε-lithocholoyl-γ-aminobutanoyl-) des(B30) HI	0.06
Lys^B29(N^ε-dehydrolithocholoyl-) des(B30) HI	0.05
Lys^B29(N^ε-hexadecanoyl-α-amido-γ-Glu-) des(B30) HI	0.38
Lys^B29(N^εlithocholyl-γ-Glu-) des(B30) human insulin [Lys^B29(N^ε lithocholyl-γ-Glu-) des(B30)]	0.00
Lys^B29(N^ε-lithocholoyl-β-Asp-) des(B30) HI	0.18
Lys^B29(N^ε-lithocholoyl-α-amido-γ-Glu-) des(B30) HI	−0.02
Lys^B29(N^ε-lithocholoyl-) des(B30) HI	−0.01
Lys^B29(N^ε-deoxycholoyl-γ-Glu-) des(B30) HI	0.20
Lys^B29(N^ε-lithocholoyl-β-Ala-) des(B30) HI	0.00
Asp^A21 Lys^B29(N^ε-tetradecanoyl-) des(B30) HI	0.55
Lys^B29(N^εtetradecanoyl) des(B30) human insulin [Lys^B29(N^ε tetradecanoyl) des(B30), reference compound]	0.58
Lys^B29(N^ε-cholanoyl-) des(B30) HI	0.40

same assay, conditions: 3 Zn2+/6 ins, 140 mM NaCl, 10 mM tris, pH 7.4

Molecule	KAV (Superose 6HR) 3Zn^2+/6 ins
Lys^B29(N^ε-lithocholoyl-γ-aminobutanoyl-) des(B30) HI	0.00
Lys^B29(N^ε-dehydrolithocholoyl-) des(B30) HI	0.03
Lys^B29(N^ε-hexadecanoyl-α-amido-γ-Glu-) des(B30) HI	0.41
Lys^B29(N^εlithocholyl-γ-Glu-) des(B30) human insulin [Lys^B29(N^ε lithocholyl-γ-Glu-) des(B30)]	−0.01
Lys^B29(N^ε-lithocholoyl-β-Asp-) des(B30) HI	0.11
Lys^B29(N^ε-lithocholoyl-α-amido-γ-Glu-) des(B30) HI	0.00
Lys^B29(N^ε-lithocholoyl-) des(B30) HI	0.23
Lys^B29(N^ε-deoxycholoyl-γ-Glu-) des(B30) HI	0.07
Lys^B29(N^ε-lithocholoyl-β-Ala-) des(B30) HI	0.13
Asp^A21 Lys^B29(N^ε-tetradecanoyl-) des(B30) HI	0.46
Lys^B29(N^εtetradecanoyl) des(B30) human insulin [Lys^B29(N^ε tetradecanoyl) des(B30), reference compound]	0.56
Lys^B29(N^ε-cholanoyl-) des(B30) HI	0.17

same assay, conditions: standards, 140 mM NaCl, 10 mM tris, pH 7.4

Molecule	KAV (Superose 6HR)
Thyroglobulin: molecular size standard, Mw 669 kDa [reference compound]	0.28
Ferritin [reference compound]	0.40
B9Asp, B27Glu human insulin [reference compound]	0.73
Aldolase: molecular size standard, Mw 158 kDa [reference compound]	0.50
B3	0.58
B1	0.72

target: Albumin (Homo sapiens, UniProt P02768); experiment: not given; settings: not given

Molecule	Albumin binding Kass
Lys^B29(N^ε-dehydrolithocholoyl-) des(B30) HI	0.26 10^5M^−1
Lys^B29(N^εlithocholyl-α-Glu-) des(B30) human insulin	0.3 × 10^5 (mol/l)^−1
Lys^B29(N^ε-hexadecanoyl-α-amido-γ-Glu-) des(B30) HI	0.56 10^5M^−1
Lys^B29(N^εω-carboxyheptadecanoyl) des(B30) human insulin	25 × 10^5 (mol/l)^−1
Lys^B29(N^ε ω-carboxynonadecanoyl) des(B30)	36 × 10^5 (mol/l)^−1
Lys^B29(N^ε-lithocholoyl-α-amido-γ-Glu-) des(B30) HI	0.23 10^5M^−1
Lys^B29(N^ε-lithocholoyl-) des(B30) HI	0.38 10^5M^−1
Lys^B29(N^ε-deoxycholoyl-γ-Glu-) des(B30) HI	0.03 10^5M^−1
B9Asp, B27Glu human insulin [reference compound]	0 (mol/l)^−1
Lys^B29(N^ε decanoyl)	0.06 × 10^5 (mol/l)^−1
Asp^A21 Lys^B29(N^ε-tetradecanoyl-) des(B30) HI	0.97 10^5M^−1
Lys^B29(N^ε-cholanoyl-) des(B30) HI	0.48 10^5M^−1

test system: not listed separately; experiment: Gel filtration on Sephacryl S-300 HR (aggregate formation, method 1); format: physicochemical; parameters: key to KAV: KAV=(VE-V0)/(VT-V0); fraction of available elution volume; settings: Sephacryl S-300 HR, pH 7.4 eluent; Zinc free

Molecule	KAV
Lys^B29(N^ε lithocholyl	0.74

same assay, conditions: gel filtration, absence of Zn2+ (0 Zn2+/hexamer)

Molecule	formation of aggregates
Lys^B29(N^εω-carboxyheptadecanoyl) des(B30) human insulin	aggregates are not formed
